This note sets out measurements from paper PMC5497592 (Biochemistry, 2011).

The series concerns the molecule itself. Briefly: cross-linking.

B1: HpUreI, the urea channel from Helicobacter pylori (natural protein)
chain: MLGLVLLYVGIVLISNGICGLTKVDPKSTAVMNFFVGGLSIICNIVVITYSALHPTAPVEGAEDIAQVSHHLTSFYGPATGLLFGFTYLYAAINHTFGLDWRPYSWYSLFVAINTIPAAILSHYSDMLDDHKVLGITEGDWWAIIWLAWGVLWLTAFIENILKIPLGKFTPWLAIIEGILTAWIPAWLLFIQHWV
Usually stoichiometry N stands for the number of molecules, sites or subunits per partner or assembly. For the protein B1, the “stoichiometry N” value was 3.
